Data on one molecule can be found in paper PMC8437434, “Hsp40s play complementary roles in the prevention of tau amyloid formation” (eLife, 2021).

In this test the target is T1, full-length tau (2N4R), C322S (UniProt P10636-8 1-441, C322S).
T1 construct: microtubule-associated protein tau, longest splice isoform 2N4R, with C322S; 15N-labelled for NMR; also called 15N-tau; source: E. coli BL21 (DE3), purified (Ni-NTA, tag cleaved, Superdex 75); not shown: His6, N-terminal, cleaved
The test is described as follows: NMR titration; 1H-15N HSQC-TROSY of 200 µM 15N-tau, tau^4R or tau^4R P301S/P301L alone and with twofold excess (400 µM) of chaperone; intensity ratios I/I0; 50 mM HEPES pH 7.0, 50 mM KCl, 1 mM DTT, 25 °C; no heparin. The conditions noted are these: both partners purified.

T1 sequence (P10636 other isoform, or with tags, fused parts or gaps C322S | C322S | C322S C322S): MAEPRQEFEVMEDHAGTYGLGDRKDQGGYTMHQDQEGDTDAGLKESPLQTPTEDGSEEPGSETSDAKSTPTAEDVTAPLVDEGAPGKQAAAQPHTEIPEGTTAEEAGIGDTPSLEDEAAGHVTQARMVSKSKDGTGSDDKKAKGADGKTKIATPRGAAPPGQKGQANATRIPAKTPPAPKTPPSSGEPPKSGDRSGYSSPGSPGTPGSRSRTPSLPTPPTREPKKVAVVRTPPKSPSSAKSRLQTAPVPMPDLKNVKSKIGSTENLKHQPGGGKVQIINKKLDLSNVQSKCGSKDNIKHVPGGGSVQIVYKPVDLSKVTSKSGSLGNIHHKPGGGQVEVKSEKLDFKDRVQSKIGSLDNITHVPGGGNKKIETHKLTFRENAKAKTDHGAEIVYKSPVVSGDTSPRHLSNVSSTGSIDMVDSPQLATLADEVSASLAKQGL

B1: DNAJA2 (natural protein)
chain: not shown
notes: DNAJA2, class A J-domain protein; homodimer (90 kDa dimer as printed); also called class A JDP; Hsp40; source: E. coli BL21 (DE3), purified (Ni-NTA, tag cleaved, Superdex 200); not shown: His6, N-terminal, cleaved
On to B1, for which the binding result is listed as “binds”.
